Substrate in this series: CC(=O)Oc1ccc([N+](=O)[O-])cc1
Briefly: purified protein. Type of series: biochemical, uncultured sludge bacterium. The note with it: 50 mM Tris-HCl pH 8.0, 40 °C, 5 min, 0.08-1.0 mM substrate.

B1: Est6 (uncultured sludge bacterium) (protein)
chain: MTELRINDDLVRWTVDRRPATADEALRALETRPLVLLMHGFGSFEGDLISLAAELPDGIVCASPRAPLTLPPPTVNGYAWWEIVFRADGTVVRSDPPAFEDSDAHTATLAILAWLDALDARVAGGLRTVVPLGFSQGGCMVTSLLRMQPTRFPCGVNCSGFVAPGSYAGDPELAAIRPPLFWGRDPADPIIEAERIDATAVWSAAHTAIEAHIYHGIGHGIGREEIADISAFIERHLAEAEH
notes: pPAL7 N-terminal Profinity eXact tag cleaved on column; E. coli BL21 Star (DE3); monomer; primers encode MTELRI... start and ...AEAEH end
The term Km denotes the concentration of substrate that gives half-maximal velocity. As a reminder, the kcat is the number of substrate molecules converted per active site and unit of time at saturation. For the protein B1, the Km came out at 1070 µM and the kcat amounted to 10.46 s⁻¹.

The record behind these values is paper PMC9786865, “Molecular Cloning and Characterization of a New Family VI Esterase from an Activated Sludge Metagenome” (Microorganisms, 2022).
